Data: patent US20180362657A1 (University of California, published 2018)

Biological target: T1, receptor tyrosine kinase-like orphan receptor 1 (ROR1) expressed on EW36 cells (human, UniProt Q01973 30-937)
T1 construct: whole, on cells; Endogenous ROR1 on viable EW36 human B-cell lymphoma cells; also called RORI
Experiment: flow cytometry on EW36 cells, culture supernatant, Alexa-488 goat anti-human IgG
Protocol: Dual parameter flow cytometry was done in a FACSCalibur instrument (BD Biosciences; Immunocytometry Systems) using an anti-human 1gG that reacted with cell bound scFV of the invention (as shown in SEQ.ID.No: 3), but not the cells used in these experiments.
Propidium iodide was added to stain dead cells, which could then be excluded from the analysis. Following incubation with the culture supernatants, the cells were washed prior to analysis using a FACSCalibu™ (Becton Dickinson, Mountain View, Calif.). The data analyzed with FlowJo™ software (Tree Star, San Carlos, Calif.). A total of 20,000-gated events were collected for each sample in a list mode file, and data analysis was done using CellQuest™ software (BD Biosciences). The relative log florescence of the cells is depicted on the x-axis. Cells staining with the Alexa-488 conjugated goat antibody are shifted to the right. A histogram of control unstained cells or cells stained with the Alexa-488 conjugated goat antibody in the absence of the scFV are provided for comparison.

T1 sequence (Q01973 30-937): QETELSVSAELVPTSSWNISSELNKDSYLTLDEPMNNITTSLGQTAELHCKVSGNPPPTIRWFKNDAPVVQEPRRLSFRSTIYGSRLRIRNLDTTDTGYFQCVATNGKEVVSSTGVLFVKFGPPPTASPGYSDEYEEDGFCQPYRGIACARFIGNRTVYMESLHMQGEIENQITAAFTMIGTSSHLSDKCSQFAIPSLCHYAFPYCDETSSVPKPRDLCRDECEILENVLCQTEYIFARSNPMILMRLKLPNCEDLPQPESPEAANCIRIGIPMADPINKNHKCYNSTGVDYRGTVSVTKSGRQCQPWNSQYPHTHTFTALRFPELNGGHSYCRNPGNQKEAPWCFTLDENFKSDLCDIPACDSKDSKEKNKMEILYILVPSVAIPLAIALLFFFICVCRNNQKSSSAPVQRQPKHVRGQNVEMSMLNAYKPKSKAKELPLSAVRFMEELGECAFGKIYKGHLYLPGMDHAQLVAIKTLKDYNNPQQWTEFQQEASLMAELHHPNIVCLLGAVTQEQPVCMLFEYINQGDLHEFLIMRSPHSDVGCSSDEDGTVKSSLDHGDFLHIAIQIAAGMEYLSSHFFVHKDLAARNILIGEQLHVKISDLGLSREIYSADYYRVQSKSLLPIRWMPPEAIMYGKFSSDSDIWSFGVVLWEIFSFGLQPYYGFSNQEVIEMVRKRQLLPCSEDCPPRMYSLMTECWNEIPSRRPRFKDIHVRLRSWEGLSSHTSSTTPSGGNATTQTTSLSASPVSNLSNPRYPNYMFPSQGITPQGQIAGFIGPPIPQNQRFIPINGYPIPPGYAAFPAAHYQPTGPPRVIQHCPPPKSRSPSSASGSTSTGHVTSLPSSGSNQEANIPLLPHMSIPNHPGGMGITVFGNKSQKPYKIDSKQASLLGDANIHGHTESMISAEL

B1: pCDNA 3.1 CH2 CH3 stable scFV (anti-ROR1 mAb scFv fused to CH2 CH3) (Fc fusion)
scFv: DIKMTQSPSSMYASLGERVTITCKASPDINSYLSWFQQKPGKSPKTLIYRANRLVDGVPSRFSGGGSGQDYSLTINSLEYEDMGIYYCLQYDEFPYTFGGGTKLEMKGSTSGSGKPGSGEGSTKGEVKLVESGGGLVKPGGSLKLSCAASGFTFSSYAMSWVRQIPEKRLEWVASISRGGTTYYPDSVKGRFTISRDNVRNILYLQMSSLRSEDTAMYYCGRYDYDGYYAMDYWGQGTSVTVSS
notes: Tested as culture supernatants of stably transfected cell clones; All clones carry the same construct, so they are written as one molecule; also called scFV of the invention; not shown: CH2 CH3 domains (detected with anti-human IgG)
B1: binds.
